What was measured:
[1] = tested on: A. thaliana T3 lines with CyPPO10 wild type or mutants (F360M, F360I, F360L, F360C, A167C), CyPPO13 wild type or mutants (F373M, F373C, F373I, A177C …); test: Seed germination of A. thaliana transformants on herbicide media; format: in vivo, Arabidopsis thaliana; settings: 25 μM glufosinate, 7 days after sowing
[2] = tested on: PPO-deficient BT3 E. coli (ΔPPO); test: Tiafenacil tolerance of BT3 E. coli transformed with CyPPO10, CyPPO13 or AtPPO1 genes (pACBB vector); format: cell-based; settings: tiafenacil 0 μM; PPO function complementation
Procedure: After transforming PPO-deficient BT3 E. coli (ΔPPO) with CyPPO10 or CyPPO13, the transformed BT3 (ΔPPO) was cultured on LB agar plates containing PPO-inhibiting herbicide to examine the growth level of the transformed BT3 (ΔPPO). BT3 (ΔPPO) strain was obtained from Hokkaido University (Japan). The BT3 (ΔPPO) strain is deficient in hemG-type PPO and has kanamycin tolerance (refer to “Watanabe et al., Dual targeting of spinach protoporphyrinogen oxidase II to mitochondria and chloroplasts by alternative use of two in-frame […], JBC 2001 276(23):20474-20481; Che et al., Molecular Characterization and Subcellular Localization of Protoporphyrinogen Oxidase in Spinach Chloroplasts, Plant Physiol. 2000 September; 124(1):59-70”).
The cloned plasmid was added to 100 μl of BT3 competent cell (Hokkaido University; Japan) respectively, thereby transforming by a heat shock method. The transformed E. coli with each PPO gene was cultured in LB (Luria-Bertani) agar media comprising Chloramphenicol (Duchefa).
For seed culture of E. coli transformed with respective genes, each single colony of E. coli transformant as provided above was cultured in 3 ml of LB broth containing chloramphenicol overnight (220 rpm, 37° C.), and 50 to 100 μl were subcultured in a new 3 ml of LB broth, and they were cultured until absorbance (OD600) became 0.5 to 1, and they were diluted with LB broth to absorbance (OD600) of 0.5. The diluted solution was serially diluted again 5 times by a factor of one tenth with LB broth. […] The LB Agar media were incubated at 37° C., under light condition, and level of inhibiting growth was observed after 16 to 20 hours of incubation.
Plant physiol. 2003 133:736-747).

CyPPO10 = test: PPO enzyme activity and IC50 by herbicides, CyPPO10 wild type and variants (MBP-PPO fusion); format: biochemical, Thermosynechococcus elongatus BP-1; settings: PPO enzyme activity of CyPPO10 protein, wild type = 100
Summary of the method: (§1)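 Activity was read as protoporphyrin IX fluorescence (405/633 nm), calibrated with a protoporphyrin IX standard curve, after 30 min at room temperature with 50 μM substrate under mineral oil. The buffer was 50 mM Tris-Cl pH 8.0 with glucose oxidase/catalase and a 30 min preincubation. Enzymes were purified MBP-PPO fusions of CyPPO10 or CyPPO13, wild type and variants, expressed in E. coli.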

A. thaliana [3] = test: Seed germination of A. thaliana transformants on ½ MS media containing herbicides; format: in vivo, Arabidopsis thaliana; settings: T3 lines; 25 μM glufosinate, 25 μM glufosinate+70 nM tiafenacil, or 25 μM glufosinate+30 nM tiafenacil+40 nM saflufenacil; 7 days after sowing
From the text: T3 generation seeds of each transformant were sown in ½ MS media containing herbicides. Col-0 ecotype (wild type Arabidopsis) seeds were used as a control. The kinds of herbicides and concentration are as follows:
In FIGS. 31a to 31c, 10-3 refers to CyPPO10 wild type, 10FM-4-7 to the CyPPO10 F360M transgenic line, 10FL-1-9 to the CyPPO10 F360L transgenic line, 10FC-3-5 to the CyPPO10 F360C transgenic line, 10AC-5-4 to the CyPPO10 A167C transgenic line, 13-1 to CyPPO13 wild type, 13FM-3-1 to the CyPPO13 F373M transgenic line, 13FC-1-1 to the CyPPO13 F373C transgenic line, 13FI-2-1 to the CyPPO13 F373I transgenic line, 13AC-1-3 to the CyPPO13 A177C transgenic line, CyPPO13_ALFL to the CyPPO13 A177L+F373L transgenic line, and CyPPO13_ALFI to the CyPPO13 A177L+F373I transgenic line, respectively.

A. thaliana [4] = test: Herbicide spray on A. thaliana transformants, injury level judged at the 7th day; format: in vivo, Arabidopsis thaliana; settings: A. thaliana transformants T2, tiafenacil 25 μM spray
CyPPO13 = test: PPO enzyme activity and IC50 by herbicides, CyPPO13 wild type and variants (MBP-PPO fusion); format: biochemical, Synechococcus sp. JA-3-3Ab; settings: PPO enzyme activity of CyPPO13 protein, wild type = 100
Summary of the method: as §1

Molecule | seed germination [1] | Growth of BT3 transformant on medium containing no herbicide [2] | Activity (%) (CyPPO10) | Seed germination in media containing herbicides (A. thaliana [3]) | Average injury index (A. thaliana [4]) | Activity (%) (CyPPO13)
CP(=O)(O)CCC(N)C(=O)O (stereo not drawn) [glufosinate] | germinated | – | – | – | – | –
CyPPO10 WT: PPO protein derived from Thermosynechococcus elongatus BP-1, amino acid sequence SEQ ID NO: 2 (protein, Synthetic CyPPO10) MIEVDVAIVGGGLSGLSVAWRLQRSAPHYSGVLLEASDRLGGNITTQAAEGFVWELGPNSFAPTPALLQLIAEVGLHSELIRGDRHLPRYIYWRGELYPLEPTRPLALATSNLLSPWGKVRAALGALGFVPPYLGSGDESVDSFFRRHLGQEVAERLVAPFVSGVYAGDPQQLSAAAAFRRIAQLEKLGGSLIAGALRLRRQQPPQPKPPAQVQMRPGELGSFREGLAALPRAIAQQLKAPLHLQTPVEAITPEPKGGYLLRSGEQTWHARSVVLATPAYQTAELVAPFQPAIARALATIPYPTVACVVLAYPAGLGRSVRPGFGVLVPRGQGIRTLGTIWSSCLFPQRTPAGWQVFTSFIGGATDPDLASLREEAIVEQVQQDLTRLLDLPAAKARLLGMKVWRRAIPQYIVGYPQQWQQVTHALTQTPGLFLCSNYAEGVALGDRVEHGNRTAAAVAAYLAGGQS | – | recovered | 100 | germinated | – | –
CyPPO10 A167L + F360M: CyPPO10 (SEQ ID NO: 2) PPO variant (protein, Synthetic CyPPO10) MIEVDVAIVGGGLSGLSVAWRLQRSAPHYSGVLLEASDRLGGNITTQAAEGFVWELGPNSFAPTPALLQLIAEVGLHSELIRGDRHLPRYIYWRGELYPLEPTRPLALATSNLLSPWGKVRAALGALGFVPPYLGSGDESVDSFFRRHLGQEVAERLVAPFVSGVYLGDPQQLSAAAAFRRIAQLEKLGGSLIAGALRLRRQQPPQPKPPAQVQMRPGELGSFREGLAALPRAIAQQLKAPLHLQTPVEAITPEPKGGYLLRSGEQTWHARSVVLATPAYQTAELVAPFQPAIARALATIPYPTVACVVLAYPAGLGRSVRPGFGVLVPRGQGIRTLGTIWSSCLFPQRTPAGWQVFTSMIGGATDPDLASLREEAIVEQVQQDLTRLLDLPAAKARLLGMKVWRRAIPQYIVGYPQQWQQVTHALTQTPGLFLCSNYAEGVALGDRVEHGNRTAAAVAAYLAGGQS | – | – | 80 | – | 2 (Over 20% and less than 30% of the plant was scorched) | –
CyPPO13 WT: PPO derived from Synechococcus sp. JA-3-3Ab strain, amino acid sequence SEQ ID NO: 4 (protein, Synthetic CyPPO13) MNPATPEPLNAEVVVIGAGISGLTLAWRLQQGLSARGGSPQAVLLAEASSRVGGCISTQSKDGYRWEEGPNSFTPTPALLNLIAEVGLTDQLVLADAKLPRYIYWEGALLPVPLSPAAALGSRLLSVGGKLRALQGLLGFVPPPPGHEETVRQFFRRQLGSEVAERLVEPFTSGVYAGDPDQLSAVAAFPRVAGLEERYGSLFAGALQALRQRPQPSPAAIQPPPKRGQLGNLRQGLQQLPEALAQKLGDSLRLGWRALQLKRAGELYWVGFETPEGSRWVAARQVVLALPAYEAAALLQELNPPASQLLAEILYPPVAVVALAYPQEALPQPLRGFGHLIPRSQGLRTLGTIWASCLFPERAPQGYHSFLSFLGGATDAALARRRGIPPIPALSPEERAQIAHAELSQVLLTRRAEPVYLGERLWPRAIPQYTLGHRQRIAQVQAHLASQTPGIWVCANYLDGVALGDCVRRAEALAQQLLSQV | – | recovered | – | germinated | – | 100
